The source of these data is publication PMC10115800, “Two assembly modes for SIN3 histone deacetylase complexes” (Cell Discovery, 2023).

Sequences and labels used below:
T1: Pst3 with C-terminal 3× Flag-tag (S. pombe, UniProt O74755 1-1154)
T1 construct: Pst3, Sin3 homolog of S. pombe, subunit of the SIN3L complex; PAH3, HID and HCR are resolved in the model; Endogenous protein; also called Pst3-Flag; Sin3 isoform Pst3; source: endogenous locus tagged, S. pombe; purified (ANTI-FLAG M2 resin, glycerol gradient); not shown: 3× Flag, C-terminal, kept
T1 sequence (looked up): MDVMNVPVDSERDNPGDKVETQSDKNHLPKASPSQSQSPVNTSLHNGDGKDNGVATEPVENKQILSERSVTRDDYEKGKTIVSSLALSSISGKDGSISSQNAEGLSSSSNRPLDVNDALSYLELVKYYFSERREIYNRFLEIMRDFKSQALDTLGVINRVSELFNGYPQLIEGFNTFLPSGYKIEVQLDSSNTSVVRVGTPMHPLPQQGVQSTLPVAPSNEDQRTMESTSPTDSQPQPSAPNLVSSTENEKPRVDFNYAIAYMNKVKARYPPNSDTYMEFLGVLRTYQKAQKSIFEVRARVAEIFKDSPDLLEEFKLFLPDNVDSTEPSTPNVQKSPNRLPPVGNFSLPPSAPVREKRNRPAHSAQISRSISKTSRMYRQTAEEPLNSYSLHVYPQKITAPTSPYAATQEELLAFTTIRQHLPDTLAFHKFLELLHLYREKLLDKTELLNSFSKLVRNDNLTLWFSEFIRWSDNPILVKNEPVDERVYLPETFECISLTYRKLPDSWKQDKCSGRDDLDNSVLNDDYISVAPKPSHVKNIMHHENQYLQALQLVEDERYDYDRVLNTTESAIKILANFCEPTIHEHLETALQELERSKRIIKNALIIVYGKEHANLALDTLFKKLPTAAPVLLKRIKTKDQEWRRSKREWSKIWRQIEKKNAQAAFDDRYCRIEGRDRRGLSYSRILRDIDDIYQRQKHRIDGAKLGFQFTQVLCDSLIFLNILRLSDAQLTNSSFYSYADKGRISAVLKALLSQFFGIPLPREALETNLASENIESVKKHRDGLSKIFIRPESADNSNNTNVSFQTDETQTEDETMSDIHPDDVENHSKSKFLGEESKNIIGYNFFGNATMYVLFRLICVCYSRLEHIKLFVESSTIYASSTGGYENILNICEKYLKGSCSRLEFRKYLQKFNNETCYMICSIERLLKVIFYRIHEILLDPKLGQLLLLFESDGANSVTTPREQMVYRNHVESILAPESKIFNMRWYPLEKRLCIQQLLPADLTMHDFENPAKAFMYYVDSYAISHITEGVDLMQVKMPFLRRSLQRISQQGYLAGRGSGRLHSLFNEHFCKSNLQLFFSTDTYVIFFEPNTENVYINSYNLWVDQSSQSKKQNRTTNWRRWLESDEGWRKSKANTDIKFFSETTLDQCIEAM

T2: Pst2 with C-terminal 3× Flag-tag (S. pombe, UniProt O13919 1-1075)
T2 construct: Pst2, Sin3 homolog of S. pombe, organising subunit of the SIN3S complex; all five domains (PAH1/2/3, HID, HCR) are resolved; also called Pst2-Flag; Sin3 isoform Pst2; source: endogenous locus tagged, S. pombe; purified (ANTI-FLAG M2 resin, glycerol gradient); not shown: 3× Flag, C-terminal, kept
T2 sequence (looked up): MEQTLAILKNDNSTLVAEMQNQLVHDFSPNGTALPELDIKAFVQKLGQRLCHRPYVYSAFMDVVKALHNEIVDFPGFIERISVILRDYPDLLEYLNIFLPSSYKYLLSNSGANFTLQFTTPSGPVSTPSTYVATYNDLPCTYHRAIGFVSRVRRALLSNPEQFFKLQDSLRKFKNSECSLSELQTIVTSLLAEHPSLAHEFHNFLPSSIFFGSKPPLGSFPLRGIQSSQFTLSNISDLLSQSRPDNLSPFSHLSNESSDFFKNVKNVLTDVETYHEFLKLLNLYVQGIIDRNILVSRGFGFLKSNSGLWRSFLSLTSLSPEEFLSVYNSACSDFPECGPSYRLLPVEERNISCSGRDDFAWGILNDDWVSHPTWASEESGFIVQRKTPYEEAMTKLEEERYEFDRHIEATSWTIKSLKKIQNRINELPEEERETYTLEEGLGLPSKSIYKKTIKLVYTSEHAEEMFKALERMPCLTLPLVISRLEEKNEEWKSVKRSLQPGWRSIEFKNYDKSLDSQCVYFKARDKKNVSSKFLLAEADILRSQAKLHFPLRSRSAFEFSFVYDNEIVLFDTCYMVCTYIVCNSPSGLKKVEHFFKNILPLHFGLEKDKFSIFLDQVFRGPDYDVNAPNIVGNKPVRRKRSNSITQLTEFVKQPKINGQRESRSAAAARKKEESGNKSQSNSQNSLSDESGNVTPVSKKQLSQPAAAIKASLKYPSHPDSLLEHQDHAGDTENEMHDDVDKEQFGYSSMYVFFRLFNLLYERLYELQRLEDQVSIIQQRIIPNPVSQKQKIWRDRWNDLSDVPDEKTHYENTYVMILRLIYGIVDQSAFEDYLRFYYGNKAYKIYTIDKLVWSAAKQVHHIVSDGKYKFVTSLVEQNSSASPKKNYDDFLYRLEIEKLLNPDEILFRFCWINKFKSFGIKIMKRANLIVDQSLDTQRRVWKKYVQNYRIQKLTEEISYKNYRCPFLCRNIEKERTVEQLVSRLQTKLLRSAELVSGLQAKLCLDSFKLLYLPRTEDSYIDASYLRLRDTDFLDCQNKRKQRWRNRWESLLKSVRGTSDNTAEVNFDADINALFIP

B1: WD40 domain-containing protein Prw1 (natural protein, S. pombe, UniProt O14021 1-431, looked up)
chain: MAVSAVPHPSKQAQASEEGINQEKCINEEYKIWKKNSPFLYDLIITRALEWPCMSLQWYPEQQIFAEHGYTEQKMFLGVRADVGKYLLAVASIQLPYLNQTVPPTTMEGASAGDESSLRVNISNLYSHPESVCSAKLMPQDDSCVATVGNYHNDVLVFDKESFESYSSASESPLKPKYRLTKHTQPCTSVCWNFLSKGTLVSGSQDATLSCWDLNAYNESDSASVLKVHISSHEKQVSDVRFHYKHQDLLASVSYDQYLHVHDIRRPDASTKPARSVHAHSGPIHSVAFNPHNDFILATCSTDKTIALWDLRNLNQRLHTLEGHEDIVTKISFSPHEEPILASTSADRRTLVWDLSRIGEDQPAEEAQDGPPELLFMHGGHTSCTIDMDWCPNYNWTMATAAEDNILQIWTPSRSIWGNEQLEEDATAYLS
notes: Prw1 of S. pombe, homolog of S. cerevisiae Ume1 and human RBBP4/7; N-terminal NEE box and C-terminal WD40 domain; two copies in SIN3L (Prw1, Prw1’), one in SIN3S; Endogenous protein; source: endogenous, S. pombe; co-purified with Pst3-3×Flag or Pst2-3×Flag (ANTI-FLAG M2 resin, glycerol gradient)
B2: Rxt3 (natural protein, S. pombe, UniProt O94707 1-351, looked up)
chain: MEEKTPENEQSKKTFDPKDSMKIEETSTNGSSQPSQPSNIKLSIGSILESSNDNGDPEYSENGMGNMNMNTLPMATSTPMSYTKQPSEAKYPNSVWERKGVSDQEENTSSVKRQKTLPTQSSGEEEAKYSHPGAPTATSADSISMESRPSNLSTSLSKTTSYPQFQVRQFVSPIISIDNSALEPFLNRYPASESLFPVTEYEYTPWLEFPLLYSSIGKFVRVTIDIKWLNAAINPRLCRREIWGTDVYTDDSDIATILAHCGCFSLLKPVRKIAVVDLYILPPLVHYKGTRKNQIESRSWSSRQDGISLKIKEVTWKPACASIFENSIHTLTLEERLQARLELSRSSTFKI
notes: Rxt3 of S. pombe, subunit of the Pst3 Lobe of the SIN3L complex; Endogenous protein; source: endogenous, S. pombe; co-purified with Pst3-3×Flag (ANTI-FLAG M2 resin, glycerol gradient)
B3: histone deacetylase Clr6 (enzyme, S. pombe, UniProt O59702 1-405, looked up)
chain: MGFGKKKVSYFYDEDVGNYHYGPQHPMKPHRVRMVHNLVVNYNLYEKLNVITPVRATRNDMTRCHTDEYIEFLWRVTPDTMEKFQPHQLKFNVGDDCPVFDGLYEFCSISAGGSIGAAQELNSGNAEIAINWAGGLHHAKKREASGFCYVNDIALAALELLKYHQRVLYIDIDVHHGDGVEEFFYTTDRVMTCSFHKFGEYFPGTGHIKDTGIGTGKNYAVNVPLRDGIDDESYESVFKPVISHIMQWFRPEAVILQCGTDSLAGDRLGCFNLSMKGHSMCVDFVKSFNLPMICVGGGGYTVRNVARVWTYETGLLAGEELDENLPYNDYLQYYGPDYKLNVLSNNMENHNTRQYLDSITSEIIENLRNLSFAPSVQMHKTPGDFTFENAEKQNIAKEEIMDERV
notes: Clr6, zinc-dependent class I histone deacetylase of S. pombe; two copies in SIN3L (Clr6, Clr6’), one in SIN3S; Endogenous protein; source: endogenous, S. pombe; co-purified with Pst3-3×Flag or Pst2-3×Flag (ANTI-FLAG M2 resin, glycerol gradient)

Holding throughout (conditions): both partners purified
The target in one experiment is T3, Pst1 (S. pombe, UniProt Q09750 1-1522).
T3 construct: Pst1, Sin3 homolog of S. pombe, endogenous subunit of the SIN3L complex; PAH3, HID and HCR are resolved in the model; Endogenous protein, untagged in the Pst3-Flag strain; only part of it is modelled in PDB 8I03; also called Sin3 isoform Pst1; Sin3 homolog Pst1; source: endogenous, S. pombe; co-purified with Pst3-3×Flag (ANTI-FLAG M2 resin, glycerol gradient)
As to the kind of experiment: cryo-EM structure; endogenous SIN3L complex purified from the Pst3-3×Flag S. pombe strain, cross-linked with 1 mM BS3; 20 mM HEPES pH 7.4, 50 mM NaCl, 2 mM DTT; 3.2 Å.

Experiment [1] has as its target T1, Pst3 with C-terminal 3× Flag-tag. The description is as above.
The target in experiment [2] is T2, Pst2 with C-terminal 3× Flag-tag. The experiment is described as follows: cryo-EM structure; endogenous SIN3S complex purified from the Pst2-3×Flag S. pombe strain, cross-linked with 1 mM BS3; 20 mM HEPES pH 7.4, 50 mM NaCl, 2 mM DTT; 2.9 Å.
The target in experiment [3] is B1. The experiment is described as follows: cryo-EM structure; endogenous SIN3L complex purified from the Pst3-3×Flag S. pombe strain, cross-linked with 1 mM BS3; 20 mM HEPES pH 7.4, 50 mM NaCl, 2 mM DTT; 3.2 Å.

T3 sequence (Q09750 whole entry, canonical isoform): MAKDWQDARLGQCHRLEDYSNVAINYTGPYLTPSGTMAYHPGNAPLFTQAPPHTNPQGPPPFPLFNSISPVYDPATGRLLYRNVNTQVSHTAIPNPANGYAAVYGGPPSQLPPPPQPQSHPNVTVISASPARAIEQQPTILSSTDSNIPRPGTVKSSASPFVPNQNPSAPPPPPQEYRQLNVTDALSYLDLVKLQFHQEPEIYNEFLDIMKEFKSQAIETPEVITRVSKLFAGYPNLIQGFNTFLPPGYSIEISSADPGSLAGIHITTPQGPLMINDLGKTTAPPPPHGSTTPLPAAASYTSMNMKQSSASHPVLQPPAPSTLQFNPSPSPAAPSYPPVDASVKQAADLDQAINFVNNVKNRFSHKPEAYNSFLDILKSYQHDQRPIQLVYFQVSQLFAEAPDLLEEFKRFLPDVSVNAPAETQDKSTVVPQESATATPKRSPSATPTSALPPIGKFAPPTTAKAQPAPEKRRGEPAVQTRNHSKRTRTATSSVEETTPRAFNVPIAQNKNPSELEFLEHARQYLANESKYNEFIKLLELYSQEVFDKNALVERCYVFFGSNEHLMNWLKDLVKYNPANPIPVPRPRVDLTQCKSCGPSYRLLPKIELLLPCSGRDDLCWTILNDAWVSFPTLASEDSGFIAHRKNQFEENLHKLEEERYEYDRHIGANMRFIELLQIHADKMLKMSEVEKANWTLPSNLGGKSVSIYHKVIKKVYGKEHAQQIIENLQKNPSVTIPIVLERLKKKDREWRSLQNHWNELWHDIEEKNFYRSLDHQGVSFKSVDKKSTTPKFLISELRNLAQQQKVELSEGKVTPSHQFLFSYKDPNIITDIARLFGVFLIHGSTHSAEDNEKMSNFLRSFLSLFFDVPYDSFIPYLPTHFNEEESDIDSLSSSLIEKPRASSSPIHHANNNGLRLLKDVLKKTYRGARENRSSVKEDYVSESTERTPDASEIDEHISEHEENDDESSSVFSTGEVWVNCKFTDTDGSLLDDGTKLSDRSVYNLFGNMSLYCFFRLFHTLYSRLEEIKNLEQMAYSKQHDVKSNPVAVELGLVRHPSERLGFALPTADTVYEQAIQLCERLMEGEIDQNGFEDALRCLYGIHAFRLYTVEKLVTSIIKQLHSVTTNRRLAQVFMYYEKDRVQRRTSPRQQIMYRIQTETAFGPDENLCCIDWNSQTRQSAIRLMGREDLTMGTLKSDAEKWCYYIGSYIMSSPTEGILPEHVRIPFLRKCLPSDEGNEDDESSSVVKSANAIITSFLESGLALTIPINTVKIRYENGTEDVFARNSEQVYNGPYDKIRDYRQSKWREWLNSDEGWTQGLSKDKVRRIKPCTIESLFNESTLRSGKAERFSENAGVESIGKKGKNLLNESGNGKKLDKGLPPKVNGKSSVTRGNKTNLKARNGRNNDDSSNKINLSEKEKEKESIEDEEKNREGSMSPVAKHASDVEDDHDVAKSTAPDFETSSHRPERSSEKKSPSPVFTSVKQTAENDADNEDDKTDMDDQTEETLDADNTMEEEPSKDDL

For B1, the binding result (with Pst1; in experiment [1]; in experiment [2]) was “binds” in each case.

Regarding B2, the binding result in experiment [3] and in experiment [1] was “binds” each time.

Turning to B3, the binding result (in the experiment with Pst1; in experiment [1]; in experiment [2]) was “binds” in each case.
